The data set “SEC-MALS” concerns the molecule itself. The experiment in a line: SEC-MALS.
For data set [1], the target named is Nup358-min (residues 2147–2240 of human Nup358) (human, UniProt P49792 2147-2240). The experiment in a line: SEC-MALS. A general note: SEC sorts molecules by how far they enter the pores of the column.

B1: Nup358-KLC2-fusion protein (other, human | mouse, UniProt P49792 2147-2240, looked up)
chain: LDIPLQTPHKLVDTGRAAKLIQRAEEMKSGLKDFKTFLTNDQTKVTEEENKGSGTGAAGASDTTIKPNPENTGPTLEWDNYDLREDALDDSVSSRLRTLHNLVIQYASQGRYEVAVPLCKQALEDLEKTSGHDHPDVATMLNILALVYRDQNKYKDAAHLLNDALAIREKTLGKDHPAVAATLNNLAVLYGKRGKYKEAEPLCKRALEIREKVLGKFHPDVAKQLSNLALLCQNQGKAEEVEYYYRRALEIYATRLGPDDPNVAKTKNNLASCYLKQGKYQDAETLYKEILTRAHEKEFGSVNGENKPIWMHAEEREESKDKRRDRRPMEYGSWYKACKVDSPTVNTTLRTLGALYRPEGKLEAAHTLEDCASRSRKQG
A word on the stoichiometry N: it is a count of units in the complex or per binding partner. Regarding B1, the “stoichiometry N” value in the data set “SEC-MALS” is 2.

B2: KLC2^TPR (residues 196–480 of mouse kinesin-1 light chain 2 isoform 1) (domain or fragment, UniProt O88448 196-480, looked up)
chain: RLRTLHNLVIQYASQGRYEVAVPLCKQALEDLEKTSGHDHPDVATMLNILALVYRDQNKYKDAAHLLNDALAIREKTLGKDHPAVAATLNNLAVLYGKRGKYKEAEPLCKRALEIREKVLGKFHPDVAKQLSNLALLCQNQGKAEEVEYYYRRALEIYATRLGPDDPNVAKTKNNLASCYLKQGKYQDAETLYKEILTRAHEKEFGSVNGENKPIWMHAEEREESKDKRRDRRPMEYGSWYKACKVDSPTVNTTLRTLGALYRPEGKLEAAHTLEDCASRSRKQG
B2: the “stoichiometry N” value in data set [1] was determined as 1.

Source of the values: article PMC7243271 (Biochemistry, 2019).
